IC50 data for three molecules are collected here from article PMC4622665 (mAbs, 2014).

The IC50 is the concentration that gives 50% inhibition. A lower IC50 goes with greater potency.

The target of this experiment is human formyl peptide receptor 1 (human, UniProt P21462). In words: FMAT competition binding on cells.
Chain of human formyl peptide receptor 1 (P21462 whole entry): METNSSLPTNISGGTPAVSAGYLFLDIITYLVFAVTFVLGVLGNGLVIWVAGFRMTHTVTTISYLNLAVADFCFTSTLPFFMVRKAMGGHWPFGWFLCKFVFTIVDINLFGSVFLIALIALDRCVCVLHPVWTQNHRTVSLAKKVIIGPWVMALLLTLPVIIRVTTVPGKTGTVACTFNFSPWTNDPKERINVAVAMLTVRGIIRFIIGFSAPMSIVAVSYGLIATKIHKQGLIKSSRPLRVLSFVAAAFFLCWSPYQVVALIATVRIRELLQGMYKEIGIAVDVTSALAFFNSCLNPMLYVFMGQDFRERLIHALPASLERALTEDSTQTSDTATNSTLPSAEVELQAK

B1: Fpro0084 IgG (antibody, V domains shown)
VH: EVQLVESGGGLVKPGGSLRLSCAASGFTFSNAWMNWVRQAPGKGLEWVGRIKSKTDGGAADYAAPVKGRFTISRDDSKNTLYLQMNSLKTEDTAVYYCTTDQLGYDFWSGYYTDTLYYYFGMDVWGPGTTVTVSS
VL: DIVMTQSPLSLPVTPGEPASISCRSSQQLQAYDGHNYLDWYLQKPGQSPQVLIYLGSNRASGVPDRFSGSGSGTDFTLKISRVEAEDVGVYYCMQALQTPLTFGGGTKVEIK
In the case of B1, the half-maximal inhibitory concentration (IC50) is 13 nM.

B2: Fpro0067 IgG (antibody, V domains shown)
VH: EVQLVESGGGLVKPGGSLRLSCAASGFTFSNAWMNWVRQAPGKGLEWVGRIKSKTDGGAADYAAPVKGRFTISRDDSKNTLYLQMNSLKTEDTAVYYCTTDQLGYDFWSGYYTDTLYYYFGMDVWGPGTTVTVSS
VL: DIVMTQSPLSLPVTPGEPASISCRSSQPLLAMDGHNYLDWYLQKPGQSPQVLIYQSKWRASGVPDRFSGSGSGTDFTLKISRVEAEDVGVYYCMQALQTPLTFGGGTKVEIK
On to B2, for which the IC50 was 14 nM.

B3: Hy38-1 IgG1 (antibody, V domains shown)
VH: EVQLVESGGGLVKPGGSLRLSCAASGFTFSNAWMNWVRQAPGKGLEWVGRIKSKTDGGAADYAAPVKGRFTISRDDSKNTLYLQMNSLKTEDTAVYYCTTDQLGYDFWSGYYTDTLYYYFGMDVWGPGTTVTVSS
VL: not shown
For the molecule B3, the IC50 was found to be 32 nM.
